For test [1], the target named is T1, human LGR7/RXFP1 receptor (Homo sapiens, UniProt Q9HBX9).
T1 construct: cloned as 2271 base pair long DNA fragment; expressed in transfected cells; host or cells: CHO K1 (ATCC CCL-61) with CRE-luciferase reporter; receptor in pcDNA3.1(-)
T1 sequence (Q9HBX9 1-757): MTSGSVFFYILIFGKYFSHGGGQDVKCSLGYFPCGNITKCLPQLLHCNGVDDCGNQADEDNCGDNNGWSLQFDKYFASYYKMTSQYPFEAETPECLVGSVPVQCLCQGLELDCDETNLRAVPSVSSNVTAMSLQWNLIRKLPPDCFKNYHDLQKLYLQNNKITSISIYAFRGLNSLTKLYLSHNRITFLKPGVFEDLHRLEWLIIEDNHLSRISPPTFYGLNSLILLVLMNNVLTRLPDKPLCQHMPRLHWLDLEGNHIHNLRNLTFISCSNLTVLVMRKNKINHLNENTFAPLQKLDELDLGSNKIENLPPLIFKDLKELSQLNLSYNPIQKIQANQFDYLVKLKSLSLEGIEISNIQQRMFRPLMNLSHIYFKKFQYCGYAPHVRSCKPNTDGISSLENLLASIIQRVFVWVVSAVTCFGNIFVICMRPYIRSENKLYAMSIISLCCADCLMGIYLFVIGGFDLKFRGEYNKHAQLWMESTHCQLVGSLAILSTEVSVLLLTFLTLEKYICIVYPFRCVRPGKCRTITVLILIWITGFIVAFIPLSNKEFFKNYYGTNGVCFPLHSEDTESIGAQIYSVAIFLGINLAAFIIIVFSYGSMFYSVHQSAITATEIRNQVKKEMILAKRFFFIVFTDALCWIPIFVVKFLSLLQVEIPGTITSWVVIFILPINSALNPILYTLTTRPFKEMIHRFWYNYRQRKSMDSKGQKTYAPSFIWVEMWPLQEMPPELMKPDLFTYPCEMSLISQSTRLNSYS
Put plainly: Relaxin activity of plasma samples from scR-Fc 13 treated rats on CHO-CRE-LGR7 cell line. The test is classed as cell-based. As to conditions: plasma 3, 5 and 7 days after intravenous administration to rats. On the procedure:
Relaxin activity in blood samples obtained from scR-Fc 13 treated rats by using the CHO-CRE-LGR7 cell line was determined. Blood samples collected 3, 5, and 7 days after intravenous administration of scR-Fc 13 were incubated on the CHO-CRE-LGR7 cell line and Relative Lights Units were determined. Calibration curves were determined using hRelaxin 2 (R&D Systems, catalogue number 6586-RN-025) and purified scR-Fc 13. The EC50 within the dose response curve is marked by an X. Data are expressed as Relative Light Units, representing the activity of scR-Fc variants and hRelaxin 2 induced luciferase expression. Symbols represent means, error bars represent S.E.M.

Test [2] concerns isolated perfused rat heart. Put plainly: Isolated perfused rat heart (Langendorff). Also noted: species or system Wistar rats. As for the experimental part: Male Wistar rats (200-250 g) were anesthetized using Narcoren (100 mg/kg i.p.). The heart was rapidly excised and connected to a Langendorff perfusion system (FMI GmbH, Seeheim-Ober Beerbach, Germany). The heart was perfused at a constant rate of 10 ml/min with Krebs-Henseleit bicarbonate buffer solution equilibrated with 95% O2-5% CO2. The perfusion solution contained (in mmol/l): NaCl 118; KCl 3; NaHCO3 22; KH2PO41,2; MgSO4 1,2; CaCl2 1,8; Glucose 10; Na-Pyruvat 2. A pressure transducer registered the perfusion pressure in the perfusion system. The left ventricular pressure (LVP) was measured using a second pressure transducer connected to a water-filled balloon which was inserted into the left ventricle via the left atrium. The end diastolic pressure was initially set to 8 mm Hg by adjusting the volume of the balloon. The hearts were spontaneously beating. The signals from the pressure transducer were amplified, registered and used for the calculation of the heart frequency and +dp/dt by a personal computer.

B1: scR-Fc 13: rat IgG2b Fc (6 Histidine tag) linked via GlyGlySerGlyGlySerGlyGlySerPro to N terminal end of scR4; SEQ ID NO: 28 (protein)
chain: HHHHHHPTCPTCHKCPVPELLGGPSVFIFPPKPKDILLISQNAKVTCVVVDVSEEEPDVQFSWFVNNVEVHTAQTQPREEQYNSTFRVVSALPIQHQDWMSGKEFKCKVNNKALPSPIEKTISKPKGLVRKPQVYVMGPPTEQLTEQTVSLTCLTSGFLPNDIGVEWTSNGHIEKNYKNTEPVMDSDGSFFMYSKLNVERSRWDSRAPFVCSVVHEGLHNHHVEKSISRPPGKGGSGGSGGSPQLYSALANKCCHVGCTKRSLARFCGGGSGGGSGSWMEEVIKLCGRELVRAQIAICGMSTWS
B1: in test [1], the “activity of plasma samples” value is recorded as “activity could be determined”. Further, in test [2] (perfusion, FIG. 11), the coronary flow result was “significant increase”, the heart rate result is reported as “significant increase”, the “left ventricular diastolic pressure” value is “decrease” and the “left ventricular pressure (+dp/dtmax)” value is “decrease”. The “effects on heart rate, coronary flow and contractility compared with hRelaxin 2” value in test [2] (ten fold higher concentration than hRelaxin 2 (1 nM)) was “Comparable effects”.
